Results: US20030204066A1 (published 2003)

T1: human lymphotoxin (TNFβ) (human, UniProt P01374 35-205, limits assumed)
T1 sequence (looked up): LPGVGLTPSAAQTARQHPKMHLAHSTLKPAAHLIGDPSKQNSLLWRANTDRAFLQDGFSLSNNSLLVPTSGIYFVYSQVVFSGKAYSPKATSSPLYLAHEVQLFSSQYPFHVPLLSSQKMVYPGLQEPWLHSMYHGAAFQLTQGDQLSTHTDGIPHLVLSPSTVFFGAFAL

B1: p75P-sf2 (p75 amino acids 1-182 / IgG1 heavy chain fusion) (Fc fusion)
chain 1: QLPAQVAFTPYAPEPGSTCRLREYYDQTAQMCCSKCSPGQHAKVFCTKTSDTVCDSCEDSTYTQLWNWVPECLSCGSRCSSDQVETQACTREQNRICTCRPGWYCALSKQEGCRLCAPLRKCRPGFGVARPGTETSDVVCKPCAPGTFSNTTSSTDICRPHQICNVVAIPGNASMDAVCTSTSGTLVTVSS
chain 2: GTKLEIK
B2: p55-sf2 (p55 TNF receptor / IgG1 heavy chain single fusion with truncated light chain JCK) (Fc fusion)
chain 1: QVCPQGKYIHPQNNSICCTKCHKGTYLYNDCPGPGQDTDCRECESGSFTASENHLRHCLSCSKCRKEMGQVEISSCTVDRDTVCGCRKNQYRHYWSENLFQCFNCSLCLNGTVHLSCQEKQNTVCTCHAGFFLRENECVSCSNCKKSLECTKLCLPQIGTLVTVSS
chain 2: GTKLEIK
B3: p55-df2 (double fusion: p55 on both the IgG1 heavy chain and the kappa light chain) (Fc fusion)
chain 1: B2 chain 1
chain 2: DSVCPQGKYIHPQNNSICCTKCHKGTYLYNDCPGPGQDTDCRECESGSFTASENHLRHCLSCSKCRKEMGQVEISSCTVDRDTVCGCRKNQYRHYWSENLFQCFNCSLCLNGTVHLSCQEKQNTVCTCHAGFFLRENECVSCSNCKKSLECTKLCLPQIGTKLEIK
B4: p75-sf2 (complete p75 extracellular domain / IgG1 heavy chain fusion) (Fc fusion)
chain 1: QLPAQVAFTPYAPEPGSTCRLREYYDQTAQMCCSKCSPGQHAKVFCTKTSDTVCDSCEDSTYTQLWNWVPECLSCGSRCSSDQVETQACTREQNRICTCRPGWYCALSKQEGCRLCAPLRKCRPGFGVARPGTETSDVVCKPCAPGTFSNTTSSTDICRPHQICNVVAIPGNASMDAVCTSTSPTRSMAPGAVHLPQPVSTRSQHTQPTPEPSTAPSTSFLLPMGPSPPAEGSTGDGTLVTVSS
chain 2: GTKLEIK

How the values were obtained:
[1] = target: human tumor necrosis factor-α (TNFα) (human, UniProt P01375 77-233); assay: cell-based or functional assay
[2] = target: T1, human lymphotoxin (TNFβ); assay: cell-based or functional assay

Chain of human tumor necrosis factor-α (TNFα) (P01375 77-233): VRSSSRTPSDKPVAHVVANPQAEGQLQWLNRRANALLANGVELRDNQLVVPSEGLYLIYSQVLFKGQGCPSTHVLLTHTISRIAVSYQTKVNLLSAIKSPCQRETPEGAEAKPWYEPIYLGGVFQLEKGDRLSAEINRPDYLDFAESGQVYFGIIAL

Row | Binder | IC50 = concentration of fusion protein required to inhibit 2 ng/ml (39.2 pM) TNFα by 50% (WEHI 164 cytotoxicity) [1] [pM] | amount needed for the same inhibition of TNFβ cytotoxicity, against p75P-sf2 [2]
1 | B1 | 70 | –
2 | B2 | 70 | –
3 | B3 | 55 | –
4 | B4 | – | 3 fold (against p75P-sf2)
